The supplement of paper PMC5998384

Legend:
HeLa Kyoto [1] = experiment: solubility in G1/S (NP-40 vs SDS abundance) (log2 ratio); higher = more soluble; conditions: cell cycle stage: G1/S
HeLa Kyoto [2] = experiment: melting temperature (median over replicates), in situ; higher = more thermally stable
HeLa Kyoto [3] = experiment: solubility change mitosis vs G1/S (difference of NP-40 vs SDS log2 ratios) (log2 ratio difference); higher = more soluble in mitosis
HeLa Kyoto [4] = experiment: thermal stability score vs G1/S (z-score of summed log2 fold changes over temperatures); higher = more thermally stable than in G1/S
[5] = cell cycle stage: early G1 (4.5 h after nocodazole release)
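For melting temperature (median over replicates), in situ in this document: HeLa Kyoto cells synchronized by double thymidine or nocodazole block, proteins quantified by TMT10plex mass spectrometry, three independent biological replicates.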
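For solubility change mitosis vs G1/S (difference of NP-40 vs SDS log2 ratios) in this document: synchronized HeLa Kyoto cells (double thymidine block for G1/S, nocodazole release for mitosis), protein amounts in NP-40 versus SDS lysates quantified by mass spectrometry, three biological replicates.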
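For solubility in G1/S (NP-40 vs SDS abundance) in this document: HeLa Kyoto cells arrested at G1/S by double thymidine block, proteins quantified by TMT10plex mass spectrometry in mild NP-40 versus SDS extracts, three biological replicates.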
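For thermal stability score vs G1/S (z-score of summed log2 fold changes over temperatures) in this document: synchronized HeLa Kyoto cells, proteins quantified by TMT10plex mass spectrometry, three biological replicates, mitosis taken 0.5 h after nocodazole release, G1/S directly after double thymidine block.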

PPIB, sequence (chain, as listed by the source): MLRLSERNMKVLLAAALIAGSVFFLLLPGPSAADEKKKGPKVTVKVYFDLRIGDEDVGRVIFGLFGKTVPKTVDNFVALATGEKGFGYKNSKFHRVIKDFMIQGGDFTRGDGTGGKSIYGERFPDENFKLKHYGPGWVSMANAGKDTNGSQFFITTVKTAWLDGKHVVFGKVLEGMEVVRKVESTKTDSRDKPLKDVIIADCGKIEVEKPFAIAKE

Row | Substance | solubility in G1/S (log2) (HeLa Kyoto [1]) | melting temperature (HeLa Kyoto [2]; cell cycle stage: G1/S) | melting temperature (HeLa Kyoto [2]; cell cycle stage: mitosis) | solubility change mitosis (log2) (HeLa Kyoto [3]) | thermal stability score (HeLa Kyoto [4]; [5]) | thermal stability score (HeLa Kyoto [4]; cell cycle stage: mitosis)
1 | LAMA5 | -0.331 | 53.3 °C | 54.1 °C | 0.0689 | 1.64 | 3.23
2 | MAVPGVGLLTRLNLCARRRTRVQRPIVRLLSCPGTVAKDLRRDEQPSGSVETGFEDKIPKRRFSEMQNERREQAQRTVLIHCPEKISENKFLKYLSQFGPINNHFFYESFGLYAVVEFCQKESIGSLQNGTHTPSTAMETAIPFRSRFFNLKLKNQTSERSRVRSSNQLPRSNKQLFELLCYAESIDDQLNTLLKEFQLTEENTKLRYLTCSLIEDMAAAYFPDCIVRPFGSSVNTFGKLGCDLDMFLDLDETRNLSAHKISGNFLMEFQVKNVPSERIATQKILSVLGECLDHFGPGCVGVQKILNARCPLVRFSHQASGFQCDLTTNNRIALTSSELLYIYGALDSRVRALVFSVRCWARAHSLTSSIPGAWITNFSLTMMVIFFLQRRSPPILPTLDSLKTLADAEDKCVIEGNNCTFVRDLSRIKPSQNTETLELLLKEFFEYFGNFAFDKNSINIRQGREQNKPDSSPLYIQNPFETSLNISKNVSQSQLQKFVDLARESAWILQQEDTDRPSISSNRPWGLVSLLLPSAPNRKSFTKKKSNKFAIETVKNLLESLKGNRTENFTKTSGKRTISTQT [MTPAP] | -0.331 | 51 °C | 49.8 °C | 0.114 | 0.65 | 1.8
3 | MMPGPRPRKGPQARGQGVAAAKQMGLFMEFGPEDMLLGMDEAEDDEDLEAELLALTGEAQTTGKKPAPKGQAPLPMAHIEKLAADCMRDVEEEEEEEGLEEDAELLTELQEVLGVDEETEPLDGDEVADPGGSEEENGLEDTEPPVQTAVLTASAPAAQAGASQGLHALLEERIHNYREAAASAKEAGEAAKARRCERGLKTLESQLASVRRGRKINEDEIPPPVALGKRPLAPQEPANRSPETDPPAPPALESDNPSQPETSLPGISAQPVSDLDPDPRALLSSRQREYKVAALSAKRAGELDRARELMRIGKRFGAVLEALEKGQPVDLSAMPPAPEDLKPQQASQAPTAPSVIPPAVERVQPVMAPDVPATPVAPTESQTVLDALQQRLNKYREAGIQARSGGDERKARMHERIAKQYQDAIRAHRAGRKVNFAELPVPPGFPPIPGLESTMGVEEDAVAATLAAAEKLASAEDSAPADKDEDEPPGHLQGEPPAQAPVAKKPARPTVPSSQRLPEPRASSSKESPSPSVREQLALLEARKLQYQRAALQAKRSQDLEQAKAYLRVAKWLEAQIIQARSGRPVDLSKVPSPLTDEEGDFILIHHEDLRLSQKAEEVYAQLQKMLLEQQEKCLLFSKQFMHQGNVAETTRFEKLAQDRKKQLEILQLAQAQGLDPPTHHFELKTFQTVRIFSELNSTEMHLIIVRGMNLPAPPGVTPDDLDAFVRFEFHYPNSDQAQKSKTAVVKNTNSPEFDQLFKLNINRNHRGFKRVIQSKGIKFEIFHKGSFFRSDKLVGTAHLKLERLENECEIREIVEVLDGRKPTGGKLEVKVRLREPLSGQDVQMVTENWLVLEPRGL [CC2D1B] | 0.252 | 50.4 °C | 50.3 °C | -0.000596 | 0.395 | 0.256
4 | PPIB | 0.0181 | 53.8 °C | 54.4 °C | 0.0983 | 4.65 | 4.71
5 | MERAGATSRGGQAPGFLLRLHTEGRAEAARVQEQDLRQWGLTGIHLRSYQLEGVNWLAQRFHCQNGCILGDEMGLGKTCQTIALFIYLAGRLNDEGPFLILCPLSVLSNWKEEMQRFAPGLSCVTYAGDKEERACLQQDLKQESRFHVLLTTYEICLKDASFLKSFPWSVLVVDEAHRLKNQSSLLHKTLSEFSVVFSLLLTGTPIQNSLQELYSLLSFVEPDLFSKEEVGDFIQRYQDIEKESESASELHKLLQPFLLRRVKAEVATELPKKTEVVIYHGMSALQKKYYKAILMKDLDAFENETAKKVKLQNILSQLRKCVDHPYLFDGVEPEPFEVGDHLTEASGKLHLLDKLLAFLYSGGHRVLLFSQMTQMLDILQDYMDYRGYSYERVDGSVRGEERHLAIKNFGQQPIFVFLLSTRAGGVGMNLTAADTVIFVDSDFNPQNDLQAAARAHRIGQNKSVKVIRLIGRDTVEEIVYRKAASKLQLTNMIIEGGHFTLGAQKPAADADLQLSEILKFGLDKLLASEGSTMDEIDLESILGETKDGQWVSDALPAAEGGSRDQEEGKNHMYLFEGKDYSKEPSKEDRKSFEQLVNLQKTLLEKASQEGRSLRNKGSVLIPGLVEGSTKRKRVLSPEELEDRQKKRQEAAAKRRRLIEEKKRQKEEAEHKKKMAWWESNNYQSFCLPSEESEPEDLENGEESSAELDYQDPDATSLKYVSGDVTHPQAGAEDALIVHCVDDSGHWGRGGLFTALEKRSAEPRKIYELAGKMKDLSLGGVLLFPVDDKESRNKGQDLLALIVAQHRDRSNVLSGIKMAALEEGLKKIFLAAKKKKASVHLPRIGHATKGFNWYGTERLIRKHLAARGIPTYIYYFPRSKSAVLHSQSSSSSSRQLVP [CHD1L] | -0.105 | 46.9 °C | 49 °C | -0.0342 | 0.274 | 0.334
6 | MGSVLGLCSMASWIPCLCGSAPCLLCRCCPSGNNSTVTRLIYALFLLVGVCVACVMLIPGMEEQLNKIPGFCENEKGVVPCNILVGYKAVYRLCFGLAMFYLLLSLLMIKVKSSSDPRAAVHNGFWFFKFAAAIAIIIGAFFIPEGTFTTVWFYVGMAGAFCFILIQLVLLIDFAHSWNESWVEKMEEGNSRCWYAALLSATALNYLLSLVAIVLFFVYYTHPASCSENKAFISVNMLLCVGASVMSILPKIQESQPRSGLLQSSVITVYTMYLTWSAMTNEPETNCNPSLLSIIGYNTTSTVPKEGQSVQWWHAQGIIGLILFLLCVFYSSIRTSNNSQVNKLTLTSDESTLIEDGGARSDGSLEDGDDVHRAVDNERDGVTYSYSFFHFMLFLASLYIMMTLTNWYRYEPSREMKSQWTAVWVKISSSWIGIVLYVWTLVAPLVLTNRDFD [SERINC1] | -0.167 | 56.2 °C | 60.6 °C | -0.141 | -4.14 | -5.22
